# [1] = ESCC patients, 3 mg/kg Q2W, n = 59
# Description: The anti-PD-1 antibody dose groups for this study: 3 mg/kg dose group at first. After enrollment, subjects will receive treatment every 2 weeks (Q2W) for a 4-week cycle, until disease progression, onset of intolerable toxicity, withdrawal of consent by the subject, no further benefit at the discretion of the investigator, or death.
# The planned dose was 3 mg/kg, Q2W.
substance,measurement,setting,value
toripalimab: humanized IgG4 anti-PD-1 mAb comprising light and heavy chain amino acid sequences set forth in SEQ ID NOs: 9 and 10 (WO2014206107),Common TRAE: ALT elevation,59 ESCC patients,11.9%
same,Common TRAE: AST elevation,59 ESCC patients,13.6%
same,Common TRAE: anemia,59 ESCC patients,18.6%
same,Common TRAE: constipation,59 ESCC patients,10.2%
same,Common TRAE: cough,59 ESCC patients,16.9%
same,Common TRAE: fatigue,59 ESCC patients,11.9%
same,Common TRAE: fever,59 ESCC patients,16.9%
same,Common TRAE: hypothyroidism,59 ESCC patients,13.6%
same,Common TRAE: leukopenia,59 ESCC patients,15.3%
same,Common TRAE: loss of appetite,59 ESCC patients,18.6%
same,Common TRAE: low hemoglobin counts,59 ESCC patients,10.2%
same,Common TRAE: nausea,59 ESCC patients,11.9%
same,Common TRAE: total bilirubin increase,59 ESCC patients,10.2%
same,Common TRAE: weight loss,59 ESCC patients,18.6%
same,Grade 3 TRAE: anemia,59 ESCC patients,2 cases
same,Grade 3 TRAE: anorexia,59 ESCC patients,1 case
same,Grade 3 TRAE: dysphagia,59 ESCC patients,1 case
same,Grade 3 TRAE: esophageal stenosis,59 ESCC patients,1 case
same,Grade 3 TRAE: fatigue,59 ESCC patients,1 case
same,Grade 3 TRAE: hydrocardia,59 ESCC patients,1 case
same,Grade 3 TRAE: hypercalcemia,59 ESCC patients,1 case
same,Grade 3 TRAE: hypertension,59 ESCC patients,1 case
same,Grade 3 TRAE: hyponatremia,59 ESCC patients,2 cases
same,Grade 3 TRAE: leukopenia,59 ESCC patients,1 case
same,Grade 3 TRAE: neck infection,59 ESCC patients,1 case
same,Grade 3 TRAE: upper respiratory infection,59 ESCC patients,1 case
same,Grade 4 TRAE: hyperuricemia,59 ESCC patients,1 case
same,Grade 4 TRAE: paraplegia,59 ESCC patients,1 case
same,Patients permanently discontinued due to TRAE,59 ESCC patients,23.7%
same,Patients with Grade 3 and higher TRAEs,59 ESCC patients,32.2%
same,Patients with Grade 4 TRAEs,59 ESCC patients,3.4%
same,Patients with dose discontinuation due to TRAE,59 ESCC patients,10.2%
same,Patients with grade 3 TRAEs,59 ESCC patients,18.6%
same,Safety in ESCC patients (conclusion),59 ESCC patients,controlled safety
same,Treatment-related death: cachexia,59 ESCC patients,1 case
same,Treatment-related death: pneumonia,59 ESCC patients,2 cases
same,Treatment-related death: unknown etiology,59 ESCC patients,3 cases
same,Patients with treatment-related adverse events (TRAEs),"59 ESCC patients, as of Dec. 31, 2018",94.9%
same,Treatment-related deaths,"59 ESCC patients, likely unrelated to the treatment",six
same,"ALT elevation, Level 1",[1],7 (11.9) n (%)
same,"ALT elevation, Level 2",[1],0 n (%)
same,"ALT elevation, Level 3",[1],0 n (%)
same,"ALT elevation, Level 4",[1],0 n (%)
same,"ALT elevation, Level 5",[1],0 n (%)
same,"ALT elevation, Total",[1],7 (11.9) n (%)
same,"AST elevation, Level 1",[1],8 (13.6) n (%)
same,"AST elevation, Level 2",[1],0 n (%)
same,"AST elevation, Level 3",[1],0 n (%)
same,"AST elevation, Level 4",[1],0 n (%)
same,"AST elevation, Level 5",[1],0 n (%)
same,"AST elevation, Total",[1],8 (13.6) n (%)
same,"Anemia, Level 1",[1],6 (10.2) n (%)
same,"Anemia, Level 2",[1],2 (3.4) n (%)
same,"Anemia, Level 3",[1],3 (5.1) n (%)
same,"Anemia, Level 4",[1],0 n (%)
same,"Anemia, Level 5",[1],0 n (%)
same,"Anemia, Total",[1],11 (18.6) n (%)
same,"Constipation, Level 1",[1],5 (8.5) n (%)
same,"Constipation, Level 2",[1],1 (1.7) n (%)
same,"Constipation, Level 3",[1],0 n (%)
same,"Constipation, Level 4",[1],0 n (%)
same,"Constipation, Level 5",[1],0 n (%)
same,"Constipation, Total",[1],6 (10.2) n (%)
same,"Cough, Level 1",[1],6 (10.2) n (%)
same,"Cough, Level 2",[1],4 (6.8) n (%)
same,"Cough, Level 3",[1],0 n (%)
same,"Cough, Level 4",[1],0 n (%)
same,"Cough, Level 5",[1],0 n (%)
same,"Cough, Total",[1],10 (16.9) n (%)
same,"Fatigue, Level 1",[1],6 (10.2) n (%)
same,"Fatigue, Level 2",[1],1 (1.7) n (%)
same,"Fatigue, Level 3",[1],0 n (%)
same,"Fatigue, Level 4",[1],0 n (%)
same,"Fatigue, Level 5",[1],0 n (%)
same,"Fatigue, Total",[1],7 (11.9) n (%)
same,"Fever, Level 1",[1],8 (13.3) n (%)
same,"Fever, Level 2",[1],2 (3.4) n (%)
same,"Fever, Level 3",[1],0 n (%)
same,"Fever, Level 4",[1],0 n (%)
same,"Fever, Level 5",[1],0 n (%)
same,"Fever, Total",[1],10 (16.9) n (%)
same,"Hypothyroidism, Level 1",[1],5 (8.5) n (%)
same,"Hypothyroidism, Level 2",[1],3 (5.1) n (%)
same,"Hypothyroidism, Level 3",[1],0 n (%)
same,"Hypothyroidism, Level 4",[1],0 n (%)
same,"Hypothyroidism, Level 5",[1],0 n (%)
same,"Hypothyroidism, Total",[1],8 (13.6) n (%)
same,"Leukopenia, Level 1",[1],6 (10.2) n (%)
same,"Leukopenia, Level 2",[1],3 (5.1) n (%)
same,"Leukopenia, Level 3",[1],0 n (%)
same,"Leukopenia, Level 4",[1],0 n (%)
same,"Leukopenia, Level 5",[1],0 n (%)
same,"Leukopenia, Total",[1],9 (15.3) n (%)
same,"Loss of appetite, Level 1",[1],6 (10.2) n (%)
same,"Loss of appetite, Level 2",[1],4 (6.8) n (%)
same,"Loss of appetite, Level 3",[1],1 (1.7) n (%)
same,"Loss of appetite, Level 4",[1],0 n (%)
same,"Loss of appetite, Level 5",[1],0 n (%)
same,"Loss of appetite, Total",[1],11 (18.6) n (%)
same,"Low hemoglobin counts, Level 1",[1],3 (5.1) n (%)
same,"Low hemoglobin counts, Level 2",[1],3 (5.1) n (%)
same,"Low hemoglobin counts, Level 3",[1],0 n (%)
same,"Low hemoglobin counts, Level 4",[1],0 n (%)
same,"Low hemoglobin counts, Level 5",[1],0 n (%)
same,"Low hemoglobin counts, Total",[1],6 (10.2) n (%)
same,"Nausea, Level 1",[1],5 (8.5) n (%)
same,"Nausea, Level 2",[1],2 (3.4) n (%)
same,"Nausea, Level 3",[1],0 n (%)
same,"Nausea, Level 4",[1],0 n (%)
same,"Nausea, Level 5",[1],0 n (%)
same,"Nausea, Total",[1],7 (11.9) n (%)
same,"Total bilirubin increase, Level 1",[1],6 (10.2) n (%)
same,"Total bilirubin increase, Level 2",[1],0 n (%)
same,"Total bilirubin increase, Level 3",[1],0 n (%)
same,"Total bilirubin increase, Level 4",[1],0 n (%)
same,"Total bilirubin increase, Level 5",[1],0 n (%)
same,"Total bilirubin increase, Total",[1],6 (10.2) n (%)
same,"Treatment-related adverse events, Level 1",[1],13 (22.0) n (%)
same,"Treatment-related adverse events, Level 2",[1],24 (40.7) n (%)
same,"Treatment-related adverse events, Level 3",[1],11 (18.6) n (%)
same,"Treatment-related adverse events, Level 4",[1],2 (3.4) n (%)
same,"Treatment-related adverse events, Level 5",[1],6 (10.2) n (%)
same,"Treatment-related adverse events, Total",[1],56 (94.9) n (%)
same,"Weight loss, Level 1",[1],8 (13.6) n (%)
same,"Weight loss, Level 2",[1],3 (5.1) n (%)
same,"Weight loss, Level 3",[1],0 n (%)
same,"Weight loss, Level 4",[1],0 n (%)
same,"Weight loss, Level 5",[1],0 n (%)
same,"Weight loss, Total",[1],11 (18.6) n (%)
